Data published in US8680046B2, “Inhibitors of viral integrase and methods of use” (Integratech Proteomics, LLC, priority 2009, dated 2014).
Ends that are not written are not given here. Peptide text beside a SMILES is read from it.

Legend:
peptide solubility = format: physicochemical; details: effect of C-terminal tail
HIV IN [1] = biological target: T1, HIV IN (Human immunodeficiency virus type 1 group M subtype B, UniProt P12497); assay: yeast two-hybrid screen, growth on -ade plates; format: cell-based; parameters: HIV IN was amplified from the pNL4-3 based provirus (R9) as template and cloned into two expression vectors; expressed in transfected cells; host or cells: Saccharomyces cerevisiae AH109; details: peptide fused to VP16 activation domain, GALDB-IN bait, FIG. 1
Text: A yeast-based screening platform for identifying inhibitors of IN was constructed. In this platform, HIV IN was amplified from the pNL4-3 based provirus (R9) as template and cloned into two expression vectors resulting in a fusion of IN C-terminus to the GAL4 DNA binding domain (GALDB) and the GAL4 activation domain (GALAD) respectively. By western blot analysis, GALAD-IN was detected (not shown); however, GALDB-IN was barely detectable.
Binders were confirmed by plasmid linkage analysis (FIG. 1).

HPVE6 = HPVE6 (Human papillomavirus type 16, UniProt P03126); details: two-hybrid
Text: (§1) To identify IN-binding peptides, yeast producing HIV integrase was mated with yeast harboring a random peptide library (15 amino acids in length; 27 million diverse) fused to the VP16 activation domain. […] The peptide was cloned as a C-terminal fusion with VP16-Zsgreen and tested for interaction with the GALDB or GALDB-IN fusion in AH109 Mat a, trp1-901, leu2-3, 112, ura3-52, his3-200, gal4 Δ, gal 80Δ, LYS2::GAL1UAS-GAL1TATA-HIS3, GAL2UAS-GAL2TATA-ADE2, URA3:MEL1UAS-MEL1TATA-lacZ. Growth on -ade plates indicated activation of a selectable reporter.

HPVE7 = HPVE7 (Human papillomavirus type 16, UniProt P03129); details: two-hybrid
Text: as §1

HIV IN [2] = biological target: T1, HIV IN; format: biochemical; details: summary statement

Chain of HPVE6 (P03126 whole entry, the tested form may be a part): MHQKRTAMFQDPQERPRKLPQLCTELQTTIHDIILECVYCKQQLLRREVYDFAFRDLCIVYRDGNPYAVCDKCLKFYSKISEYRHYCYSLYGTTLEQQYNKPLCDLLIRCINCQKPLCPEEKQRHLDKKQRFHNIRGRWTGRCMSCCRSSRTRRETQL
Chain of HPVE7 (P03129 whole entry): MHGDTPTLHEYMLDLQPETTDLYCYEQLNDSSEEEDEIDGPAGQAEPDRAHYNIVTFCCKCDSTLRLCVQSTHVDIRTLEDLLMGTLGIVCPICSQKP

Compound	peptide solubility (peptide solubility)	interaction with HIV IN by two-hybrid (HIV IN [1])	interaction with false bait HPVE6 (HPVE6)	interaction with false bait HPVE7 (HPVE7)	inhibition of integration of viral DNA into target DNA (HIV IN [2])
CC[C@H](C)[C@H](NC(=O)[C@H](CC(C)C)NC(=O)[C@@H](NC(=O)[C@@H](NC(=O)[C@H](CCC(=O)O)NC(=O)[C@H](Cc1ccc(O)cc1)NC(=O)[C@@H](N)CC(C)C)[C@@H](C)O)[C@@H](C)CC)C(=O)N[C@@H](CC(C)C)C(=O)N[C@@H](CC(C)C)C(=O)N[C@@H](Cc1ccccc1)C(=O)N[C@@H](CC(C)C)C(=O)N[C@@H](CC(=O)O)C(=O)N[C@H](C(=O)N[C@@H](CC(=O)O)C(=O)N[C@H](C(=O)NCC(=O)N[C@@H](CC(=O)O)C(=O)N[C@@H](CCC(=O)O)C(=O)N[C@@H](CC(=O)O)C(=O)O)[C@@H](C)O)C(C)C [B05759] (H-LYETILILLFLDVDTGDED-OH; N-terminus and C-terminus assumed)	increased peptide solubility	–	–	–	–
LYETILILLFLDVDTG [SEQ ID NO:1]	–	interacted with the viral target	not false baits	not false baits	inhibit the integration of viral DNA into the target DNA
CC[C@H](C)[C@H](NC(=O)[C@H](CC(C)C)NC(=O)[C@@H](NC(=O)[C@@H](NC(=O)[C@H](CCC(=O)O)NC(=O)[C@H](Cc1ccc(O)cc1)NC(=O)[C@@H](N)CC(C)C)[C@@H](C)O)[C@@H](C)CC)C(=O)N[C@@H](CC(C)C)C(=O)N[C@@H](CC(C)C)C(=O)N[C@@H](Cc1ccccc1)C(=O)N[C@@H](CC(C)C)C(=O)N[C@@H](CC(=O)O)C(=O)N[C@H](C(=O)N[C@@H](CC(=O)O)C(=O)N[C@H](C(=O)NCC(=O)N[C@@H](CCCCN)C(=O)N[C@@H](CCCCN)C(=O)N[C@@H](CCCNC(=N)N)C(=O)O)[C@@H](C)O)C(C)C [B05751] (H-LYETILILLFLDVDTGKKR-OH; N-terminus and C-terminus assumed)	increased peptide solubility	–	–	–	–
